Experimental data from US6914129 (dated 2005).
Changes are numbered by the printed parent chain.

T1: FceRI alpha (FCEH) (human, UniProt P12319)
T1 chain: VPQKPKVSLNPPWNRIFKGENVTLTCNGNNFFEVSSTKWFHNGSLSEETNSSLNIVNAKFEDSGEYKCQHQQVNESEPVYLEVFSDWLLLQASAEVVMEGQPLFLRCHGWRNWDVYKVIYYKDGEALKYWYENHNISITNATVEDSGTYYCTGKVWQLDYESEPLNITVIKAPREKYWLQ

T2: FceRII (CD23, FCEL) (human, UniProt P06734)
T2 chain: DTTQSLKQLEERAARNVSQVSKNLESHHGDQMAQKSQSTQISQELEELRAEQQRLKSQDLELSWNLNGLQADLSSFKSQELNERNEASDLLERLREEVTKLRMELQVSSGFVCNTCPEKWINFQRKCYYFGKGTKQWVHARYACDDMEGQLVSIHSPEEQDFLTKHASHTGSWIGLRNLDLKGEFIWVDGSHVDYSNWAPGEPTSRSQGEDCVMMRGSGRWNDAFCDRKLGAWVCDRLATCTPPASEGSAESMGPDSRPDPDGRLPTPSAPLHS

B1: IgE mutant 4 (protein)
chain: ASTQSPSVFPLTRCCKNIPSNATSVTLGCLATGYFPEPVMVTWDTGSLNGTTMTLPATTLTLSGHYATISLLTVSGAWAKQMFTCRVAHTPSSTDWVDNKTFSVCSRDFTPPTVKILQSSCDGGGHFPPTIQLLCLVSGYTPGTINITWLEDGQVMDVDLSTASTTQEGELASTQSELTLSQKHWLSDRTYTCQVTYQGHTFEDSTKKCADSNPRGVSAYLSRPSPFDLFIRKSPTITCLVVDLAPSKGTVNLTWSRASGKPVNHSTRKEEKQRNGTLTVTSTLPVLHQDWLDGKEYQCRVTHPHLPRALMRSTTKTSGPRAAPEVYAFATPEWPGSRDKRTLACLIQNFMPEDISVQWLHNEVQLPDARHSTTQPRKTKGSGFFVFSRLEVTRAEWEQKDEFICRAVHEAASPSQTVQRAVSVNPGLAGGSAQSQRAPDRVLCHSGQQQGLPRAAGGSVPHPRCHCGAGRADWPGPPELDVCVEEAEGEAPWTWTGLC
B2: IgE mutant 1 (protein)
chain: B1 chain with L287G, H288T, Q289R, L292I, D293E, K295E, E296T
B3: IgE mutant 3 (protein)
chain: B1 chain with L287G, H288T, Q289R, L292I, D293E, K295E, E296T
B4: IgE mutant 50 (protein)
chain: B1 chain with L287G, H288T, Q289R, L292I, D293E, K295E, E296T
B5: IgE mutant 62 (protein)
chain: B1 chain with K183A, L287G, H288T, Q289R, L292I, D293E, K295E, E296T

Molecular target: T1, FceRI alpha (FCEH)
Assay: FACS

Binding result, no binding:
B1
B2

Molecular target: T2, FceRII (CD23, FCEL)
Assay: FACS

Binding result, no binding:
B3
B1
B4
B2
B5
